From PMC10933417 come the findings set out here.

One data set concerns the target RPA heterotrimer (UniProt P27694;P15927;P35244 1-616;1-270;1-121). Briefly: EMSA; 0.8 mM ZnCl2; 20 mM HEPES-KOH pH 7.9, 100 mM KCl, 0.8 mM ZnCl2, 0.2 mM EDTA, 5% glycerol, 0.5 mM DTT, 0.5 mM PMSF, 6.25 ug/mL poly(dI:dC), 50 ng/uL BSA, ~0.5 nM probe, on ice; gel at 4 °C. Conditions: protein: recombinant; copies: 1;1;1; label: 32P (T4 PNK end label).
For another data set, the target named is T1, ZNF827 wild-type (Homo sapiens, UniProt Q17R98 1-1081).
T1 sequence: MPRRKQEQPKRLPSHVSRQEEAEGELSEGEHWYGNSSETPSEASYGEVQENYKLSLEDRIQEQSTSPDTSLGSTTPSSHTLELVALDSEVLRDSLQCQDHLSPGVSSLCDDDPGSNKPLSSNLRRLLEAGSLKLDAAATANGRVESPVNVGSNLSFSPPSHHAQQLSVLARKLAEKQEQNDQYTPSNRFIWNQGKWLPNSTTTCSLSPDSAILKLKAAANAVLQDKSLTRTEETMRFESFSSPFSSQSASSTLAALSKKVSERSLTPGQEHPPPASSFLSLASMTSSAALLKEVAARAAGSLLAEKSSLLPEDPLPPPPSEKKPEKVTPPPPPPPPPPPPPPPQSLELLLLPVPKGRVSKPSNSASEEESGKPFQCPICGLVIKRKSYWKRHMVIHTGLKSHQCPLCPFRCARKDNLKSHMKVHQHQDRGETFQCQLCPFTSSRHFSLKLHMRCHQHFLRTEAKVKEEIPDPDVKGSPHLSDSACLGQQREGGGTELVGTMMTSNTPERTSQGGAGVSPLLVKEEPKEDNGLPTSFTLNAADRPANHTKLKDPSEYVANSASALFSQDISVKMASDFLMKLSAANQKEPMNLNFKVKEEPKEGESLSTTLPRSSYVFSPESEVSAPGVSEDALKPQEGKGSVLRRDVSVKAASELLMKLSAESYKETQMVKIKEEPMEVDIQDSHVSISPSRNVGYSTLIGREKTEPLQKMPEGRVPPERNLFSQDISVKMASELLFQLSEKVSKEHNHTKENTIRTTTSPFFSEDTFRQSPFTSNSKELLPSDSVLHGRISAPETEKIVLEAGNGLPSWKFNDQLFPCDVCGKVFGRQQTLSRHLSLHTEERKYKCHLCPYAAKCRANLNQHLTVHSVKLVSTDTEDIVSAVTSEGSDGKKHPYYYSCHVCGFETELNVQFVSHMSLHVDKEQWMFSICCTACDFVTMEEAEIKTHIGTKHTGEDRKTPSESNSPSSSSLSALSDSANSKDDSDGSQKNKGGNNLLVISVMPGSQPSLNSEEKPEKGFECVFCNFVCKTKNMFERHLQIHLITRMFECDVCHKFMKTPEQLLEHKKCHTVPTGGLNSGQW
Described as above. The conditions noted are these: protein: recombinant, tags: HaloTag removed by TEV cleavage, label: 32P (T4 PNK end label).

The target in the next data set is T2, ZNF827 ZnFΔ1-3 (Homo sapiens, UniProt Q17R98 1-373+456-1081, internal_change).
T2 sequence: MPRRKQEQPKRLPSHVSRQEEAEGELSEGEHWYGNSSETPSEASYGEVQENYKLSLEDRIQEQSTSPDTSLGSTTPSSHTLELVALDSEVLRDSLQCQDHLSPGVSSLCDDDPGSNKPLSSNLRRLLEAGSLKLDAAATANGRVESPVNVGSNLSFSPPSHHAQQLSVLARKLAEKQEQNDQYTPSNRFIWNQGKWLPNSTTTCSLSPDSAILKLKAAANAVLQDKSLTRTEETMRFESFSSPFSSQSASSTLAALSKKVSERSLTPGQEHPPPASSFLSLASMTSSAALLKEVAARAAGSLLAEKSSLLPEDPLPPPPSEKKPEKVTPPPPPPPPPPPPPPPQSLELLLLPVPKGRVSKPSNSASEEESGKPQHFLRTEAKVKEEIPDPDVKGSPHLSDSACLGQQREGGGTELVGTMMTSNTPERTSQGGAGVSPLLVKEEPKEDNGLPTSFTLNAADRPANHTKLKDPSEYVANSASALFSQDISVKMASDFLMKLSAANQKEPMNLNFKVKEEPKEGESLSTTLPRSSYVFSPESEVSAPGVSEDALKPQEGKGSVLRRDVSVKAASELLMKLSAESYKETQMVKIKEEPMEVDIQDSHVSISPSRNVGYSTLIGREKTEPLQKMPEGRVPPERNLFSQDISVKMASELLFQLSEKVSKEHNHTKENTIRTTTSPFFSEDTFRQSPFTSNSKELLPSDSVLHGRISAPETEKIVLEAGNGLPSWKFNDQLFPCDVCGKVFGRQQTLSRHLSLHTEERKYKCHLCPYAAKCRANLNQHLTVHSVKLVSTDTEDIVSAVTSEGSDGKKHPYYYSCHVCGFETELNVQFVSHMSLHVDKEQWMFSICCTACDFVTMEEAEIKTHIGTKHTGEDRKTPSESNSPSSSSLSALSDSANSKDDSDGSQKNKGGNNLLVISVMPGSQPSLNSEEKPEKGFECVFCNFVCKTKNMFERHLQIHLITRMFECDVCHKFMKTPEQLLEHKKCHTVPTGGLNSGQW
Described as above. The conditions noted are these: protein: recombinant, tags: HaloTag removed by TEV cleavage, label: 32P (T4 PNK end label).

The target of data set [1] is ZNF827 wild-type;RPA heterotrimer (Homo sapiens;Homo sapiens?, UniProt Q17R98;P27694;P15927;P35244 1-1081;1-616;1-270;1-121, |). Briefly: EMSA; 0.8 mM ZnCl2; intermediate band only with both proteins; RPA partly displaces ZNF827; 20 mM HEPES-KOH pH 7.9, 100 mM KCl, 0.8 mM ZnCl2, 0.2 mM EDTA, 5% glycerol, 0.5 mM DTT, 0.5 mM PMSF, 6.25 ug/mL poly(dI:dC), 50 ng/uL BSA, ~0.5 nM probe, on ice; gel at 4 °C. The conditions noted are these: protein: recombinant;recombinant; tags: HaloTag removed by TEV cleavage;; copies: 1;1;1;1; label: 32P (T4 PNK end label).

The next data set has as its target T3, ZNF827 ZnFΔ4-9 (Homo sapiens, UniProt Q17R98 1-816+1070-1081, internal_change).
T3 sequence: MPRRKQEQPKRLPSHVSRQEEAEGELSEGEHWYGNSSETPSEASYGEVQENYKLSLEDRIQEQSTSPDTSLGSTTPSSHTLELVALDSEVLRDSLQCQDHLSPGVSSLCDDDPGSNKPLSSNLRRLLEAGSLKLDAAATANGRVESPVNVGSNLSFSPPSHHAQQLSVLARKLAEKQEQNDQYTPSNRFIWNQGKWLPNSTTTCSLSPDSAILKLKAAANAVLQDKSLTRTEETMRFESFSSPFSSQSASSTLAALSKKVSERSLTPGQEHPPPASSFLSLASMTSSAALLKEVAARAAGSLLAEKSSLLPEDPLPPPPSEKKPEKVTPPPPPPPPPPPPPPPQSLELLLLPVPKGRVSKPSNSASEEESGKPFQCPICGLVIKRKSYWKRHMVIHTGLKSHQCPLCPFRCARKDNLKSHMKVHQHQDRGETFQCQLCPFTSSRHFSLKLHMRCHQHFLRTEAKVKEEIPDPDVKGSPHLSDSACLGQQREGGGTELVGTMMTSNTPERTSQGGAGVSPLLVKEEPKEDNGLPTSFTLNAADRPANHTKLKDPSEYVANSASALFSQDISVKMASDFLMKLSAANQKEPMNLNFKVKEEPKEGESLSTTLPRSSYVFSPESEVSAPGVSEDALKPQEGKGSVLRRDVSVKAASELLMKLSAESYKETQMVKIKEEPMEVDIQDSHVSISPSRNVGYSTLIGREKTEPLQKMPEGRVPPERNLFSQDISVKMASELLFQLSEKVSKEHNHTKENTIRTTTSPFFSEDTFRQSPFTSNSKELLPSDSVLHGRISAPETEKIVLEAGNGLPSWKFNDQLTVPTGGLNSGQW
Nature of the data set: EMSA; 0.8 mM ZnCl2; 20 mM HEPES-KOH pH 7.9, 100 mM KCl, 0.8 mM ZnCl2, 0.2 mM EDTA, 5% glycerol, 0.5 mM DTT, 0.5 mM PMSF, 6.25 ug/mL poly(dI:dC), 50 ng/uL BSA, ~0.5 nM probe, on ice; gel at 4 °C. Conditions: protein: recombinant; tags: HaloTag removed by TEV cleavage; label: 32P (T4 PNK end label); blunt. For orientation: A gel shift assay detects complexes by their altered migration in electrophoresis.

ZNF827 wild-type;RPA heterotrimer, sequence (P27694 whole entry, chain 2 of 3): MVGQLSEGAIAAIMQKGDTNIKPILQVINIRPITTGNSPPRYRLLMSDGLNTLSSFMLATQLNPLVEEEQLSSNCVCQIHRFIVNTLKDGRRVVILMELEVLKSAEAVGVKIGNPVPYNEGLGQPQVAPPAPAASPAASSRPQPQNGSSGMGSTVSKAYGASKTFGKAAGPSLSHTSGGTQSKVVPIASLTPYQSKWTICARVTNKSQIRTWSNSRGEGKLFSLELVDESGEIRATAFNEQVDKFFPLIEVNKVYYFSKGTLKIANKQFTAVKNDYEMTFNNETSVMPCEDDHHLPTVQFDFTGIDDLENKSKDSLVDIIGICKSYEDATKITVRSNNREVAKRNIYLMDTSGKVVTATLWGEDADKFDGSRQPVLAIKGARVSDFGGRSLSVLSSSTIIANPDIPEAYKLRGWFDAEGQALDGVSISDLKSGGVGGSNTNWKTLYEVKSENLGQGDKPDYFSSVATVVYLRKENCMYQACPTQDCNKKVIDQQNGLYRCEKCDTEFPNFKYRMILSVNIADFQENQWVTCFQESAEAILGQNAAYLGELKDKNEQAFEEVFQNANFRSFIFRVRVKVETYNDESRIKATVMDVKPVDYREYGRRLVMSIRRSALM
ZNF827 wild-type;RPA heterotrimer, sequence (P15927 whole entry, chain 3 of 3): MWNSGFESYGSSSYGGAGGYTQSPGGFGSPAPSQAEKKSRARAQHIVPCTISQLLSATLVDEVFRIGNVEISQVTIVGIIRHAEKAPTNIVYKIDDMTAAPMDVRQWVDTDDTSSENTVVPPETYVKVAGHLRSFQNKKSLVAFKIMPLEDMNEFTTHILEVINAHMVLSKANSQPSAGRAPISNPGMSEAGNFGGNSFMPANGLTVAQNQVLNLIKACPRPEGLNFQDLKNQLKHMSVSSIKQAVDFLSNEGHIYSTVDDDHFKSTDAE
ZNF827 wild-type;RPA heterotrimer, sequence (P35244 whole entry, chain 4 of 3): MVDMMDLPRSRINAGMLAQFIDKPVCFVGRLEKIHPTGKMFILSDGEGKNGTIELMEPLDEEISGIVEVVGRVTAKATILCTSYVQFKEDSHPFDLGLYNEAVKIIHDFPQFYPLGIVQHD
RPA heterotrimer, sequence (P27694 whole entry, chain 1 of 3): as the sequence (P27694 whole entry, chain 2 of 3) above
RPA heterotrimer, sequence (P15927 whole entry, chain 2 of 3): as the sequence (P15927 whole entry, chain 3 of 3) above
RPA heterotrimer, sequence (P35244 whole entry, chain 3 of 3): as the sequence (P35244 whole entry, chain 4 of 3) above

B1: ssDNA pentaprobe (ssDNA)
DNA: CGCTCTATTCTACTGTCCTGTGCATTCAATCGTTGAGTTCGATCTAGTCTCGTCTAACCCTCCCCTGCTCCGCTGGTCTGGCCTCGCCTATCCTACCCAT
On to B1, for which the binding result in the data set with RPA heterotrimer is given as “binds”; with ZNF827 wild-type, “binds”; with ZNF827 ZnFΔ1-3, “no binding”; in data set [1] it was “binds”.

B2: dsDNA pentaprobe (dsDNA)
DNA 1: B1 DNA
DNA 2: ATGGGTAGGATAGGCGAGGCCAGACCAGCGGAGCAGGGGAGGGTTAGACGAGACTAGATCGAACTCAACGATTGAATGCACAGGACAGTAGAATAGAGCG
Regarding B2, the binding result in the data set with ZNF827 wild-type (blunt), in the data set with ZNF827 ZnFΔ1-3 (blunt) and in the data set with ZNF827 ZnFΔ4-9 was “no binding” in each case.
